Assay results as given in paper PMC12781765.

Legend:
GFP-Ric8A, Q9NPQ8 = biological target: T1, GFP-Ric8A, Q9NPQ8; assay: co-immunoprecipitation (GFP nanobody IP, Western blot quantification); details: chain shown with the change; HEK293T cells; n = 4; parent: est. 1.0; read off a plot
T1 chain: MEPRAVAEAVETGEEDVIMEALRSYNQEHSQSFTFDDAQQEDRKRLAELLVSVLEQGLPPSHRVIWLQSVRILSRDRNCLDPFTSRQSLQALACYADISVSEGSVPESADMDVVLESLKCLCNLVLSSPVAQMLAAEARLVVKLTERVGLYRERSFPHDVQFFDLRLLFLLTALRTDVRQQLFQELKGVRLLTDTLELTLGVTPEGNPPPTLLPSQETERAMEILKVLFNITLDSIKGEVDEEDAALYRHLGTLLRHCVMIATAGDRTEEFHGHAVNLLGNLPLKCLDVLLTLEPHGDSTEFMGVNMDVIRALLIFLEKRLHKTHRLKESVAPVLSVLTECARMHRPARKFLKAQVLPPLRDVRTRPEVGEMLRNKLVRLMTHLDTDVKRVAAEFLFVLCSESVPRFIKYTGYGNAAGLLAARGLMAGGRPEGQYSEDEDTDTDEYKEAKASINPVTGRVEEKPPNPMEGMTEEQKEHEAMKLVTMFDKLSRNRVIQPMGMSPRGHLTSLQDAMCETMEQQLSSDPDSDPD

[1] = biological target: GFP-Gβ1γ3 (GFP-tagged Gβ1 and GFP-tagged Gγ3), P62873;P63215; assay: as above; details: chain shown with the change; HEK293T cells; n = 4; parent: est. 1.0; read off a plot
GFP-Gβ1γ3 (GFP-tagged Gβ1 and GFP-tagged Gγ3), P62873;P63215, sequence (chain, as listed by the source, chain 1 of 2): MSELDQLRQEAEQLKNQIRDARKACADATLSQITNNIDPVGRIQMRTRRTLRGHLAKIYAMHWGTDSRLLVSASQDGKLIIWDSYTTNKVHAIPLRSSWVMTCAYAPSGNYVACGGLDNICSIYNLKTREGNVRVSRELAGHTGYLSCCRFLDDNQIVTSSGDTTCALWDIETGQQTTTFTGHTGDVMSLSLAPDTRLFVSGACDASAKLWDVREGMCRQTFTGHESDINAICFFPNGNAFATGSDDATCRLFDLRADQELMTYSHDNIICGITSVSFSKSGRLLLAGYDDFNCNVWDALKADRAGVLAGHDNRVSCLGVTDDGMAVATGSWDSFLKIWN
GFP-Gβ1γ3 (GFP-tagged Gβ1 and GFP-tagged Gγ3), P62873;P63215, sequence (chain, as listed by the source, chain 2 of 2): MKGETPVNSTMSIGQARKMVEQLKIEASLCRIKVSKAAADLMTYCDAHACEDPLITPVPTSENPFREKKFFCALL

[2] = biological target: T2, Venus-tagged Gβ3γ9, P16520;O14610; assay: BRET-based Gβ3γ9 displacement assay (competition with GαoG92-NLuc); details: chain shown with the change; n = 3; parent: est. 100; read off a plot
T2 chain 1: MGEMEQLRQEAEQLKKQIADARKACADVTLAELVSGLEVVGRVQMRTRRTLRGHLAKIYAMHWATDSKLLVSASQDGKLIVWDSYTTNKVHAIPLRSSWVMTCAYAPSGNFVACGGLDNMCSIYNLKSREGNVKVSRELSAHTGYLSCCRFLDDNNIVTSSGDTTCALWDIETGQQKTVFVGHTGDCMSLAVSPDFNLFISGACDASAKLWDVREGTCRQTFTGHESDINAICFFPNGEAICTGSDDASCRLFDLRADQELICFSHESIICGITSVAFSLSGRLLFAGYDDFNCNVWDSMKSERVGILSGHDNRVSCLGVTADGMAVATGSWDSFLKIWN
T2 chain 2: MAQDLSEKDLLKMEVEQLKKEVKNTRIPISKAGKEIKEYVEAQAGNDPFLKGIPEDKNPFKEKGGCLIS

B1: Gαo wild-type (non-tagged), P09471-1 L39_G40insV (protein)
chain: MGCTLSAEERAALERSKAIEKNLKEDGISAAKDVKLLLLVGAGESGKSTIVKQMKIIHEDGFSGEDVKQYKPVVYSNTIQSLAAIVRAMDTLGIEYGDKERKADAKMVCDVVSRMEDTEPFSAELLSAMMRLWGDSGIQECFNRSREYQLNDSAKYYLDSLDRIGAADYQPTEQDILRTRVKTTGIVETHFTFKNLHFRLFDVGGQRSERKKWIHCFEDVTAIIFCVALSGYDQVLHEDETTNRMHESLMLFDSICNNKFFIDTSIILFLNKKDLFGEKIKKSPLTICFPEYTGPNTYEDAAAYIQAQFESKNRSPNKEIYCHMTCATDTNNIQVVFDAVTDIIIANNLRGCGLY
ratio to parent (folds over Gαo wild-type) (GFP-Ric8A, Q9NPQ8): 6.2 | ratio to parent (folds over Gαo wild-type) [1]: 0.29 | percent of parent (% of Gαo wild-type) [2]: 30
